Test results reported in patent US20250041390.

System: thrombin-cleavable lipopeptide conjugate (TCP-stearate)

Question: How did the “MALDI-TOF mass spectroscopy of TCP-stearate before and after exposure to thrombin (30 minutes, 250 nM)” value turn out when thrombin was run?
Answer: The value was “thrombin could efficiently cleave the conjugate, evidenced by the fact that after thrombin exposure very little of the TCP-stearate conjugate remains (peak at 1046 m/z), whereas 2 new degradation peaks appear (495 and 534 m/z)”.
